# T1: GRIP1_3, Q9Y3R0
# T1 sequence (Q9Y3R0 247-346, limits assumed, looked up): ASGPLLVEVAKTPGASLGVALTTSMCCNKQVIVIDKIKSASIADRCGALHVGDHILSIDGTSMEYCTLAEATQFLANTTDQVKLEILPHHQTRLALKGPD
# T2: PCLO, Q9Y6V0
# T2 sequence (Q9Y6V0 4491-4600, limits assumed, looked up): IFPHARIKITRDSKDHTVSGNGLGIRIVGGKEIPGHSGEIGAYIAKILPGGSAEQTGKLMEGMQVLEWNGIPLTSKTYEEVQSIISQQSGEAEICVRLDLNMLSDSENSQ
# T3: GRIP1_7, Q9Y3R0
# T3 sequence (Q9Y3R0 999-1096, limits assumed, looked up): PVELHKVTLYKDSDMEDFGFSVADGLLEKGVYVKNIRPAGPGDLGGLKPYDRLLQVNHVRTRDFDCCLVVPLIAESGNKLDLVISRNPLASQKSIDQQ
# T4: NHERF3_3, Q5T2W1
# T4 sequence (Q5T2W1 238-333, limits assumed, looked up): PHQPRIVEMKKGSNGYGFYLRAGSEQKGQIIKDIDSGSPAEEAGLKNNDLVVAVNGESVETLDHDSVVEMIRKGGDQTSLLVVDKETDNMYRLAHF
# T5: MPP7, Q5T2T1
# T5 sequence (Q5T2T1 134-230, limits assumed, looked up): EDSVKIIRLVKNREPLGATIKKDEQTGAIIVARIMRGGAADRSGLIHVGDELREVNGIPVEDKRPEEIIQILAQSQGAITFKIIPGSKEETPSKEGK
# T6: SNTA1, Q13424
# T6 sequence (Q13424 82-180, limits assumed, looked up): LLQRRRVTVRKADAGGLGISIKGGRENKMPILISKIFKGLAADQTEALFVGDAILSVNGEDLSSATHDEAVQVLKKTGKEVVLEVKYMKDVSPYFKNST
# T7: MPDZ_5, O75970
# T7 sequence (O75970 695-796, limits assumed, looked up): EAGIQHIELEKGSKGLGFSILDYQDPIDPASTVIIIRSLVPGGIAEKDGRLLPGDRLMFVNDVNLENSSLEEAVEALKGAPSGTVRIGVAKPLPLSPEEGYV
# T8: LRRC7, Q96NW7
# T8 sequence (Q96NW7 1440-1537, limits assumed, looked up): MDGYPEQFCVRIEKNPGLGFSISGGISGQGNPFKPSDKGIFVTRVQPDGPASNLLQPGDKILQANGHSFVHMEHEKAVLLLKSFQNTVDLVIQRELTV
# T9: RHPN1, Q8TCX5
# T9 sequence (Q8TCX5 508-602, limits assumed, looked up): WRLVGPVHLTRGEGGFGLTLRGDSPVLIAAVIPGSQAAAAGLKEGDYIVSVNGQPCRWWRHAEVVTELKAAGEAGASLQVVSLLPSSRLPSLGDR
# T10: TX1BP3, O14907
# T10 sequence (O14907 10-122, limits assumed, looked up): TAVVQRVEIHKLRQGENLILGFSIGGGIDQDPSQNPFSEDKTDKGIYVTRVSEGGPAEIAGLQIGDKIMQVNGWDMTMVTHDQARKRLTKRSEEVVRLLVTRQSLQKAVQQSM
# T11: SYNJ2BP, P57105
# T11 sequence (P57105 8-110, limits assumed, looked up): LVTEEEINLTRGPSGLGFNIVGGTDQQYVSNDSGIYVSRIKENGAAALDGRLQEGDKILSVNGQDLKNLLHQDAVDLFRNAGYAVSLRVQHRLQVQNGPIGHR
# T12: NHERF3_4, Q5T2W1
# T12 sequence (Q5T2W1 373-468, limits assumed, looked up): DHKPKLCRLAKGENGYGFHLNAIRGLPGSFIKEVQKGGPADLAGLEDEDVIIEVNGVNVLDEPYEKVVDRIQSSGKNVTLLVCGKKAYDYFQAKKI
# How the values were obtained:
# Assay in all cases: holdup assay
# Set-up in all cases: key: below the threshold = too weak to quantify, mostly under pKd 3.1 to 4
# GRIP1_3, Q9Y3R0 = biological target: T1, GRIP1_3, Q9Y3R0
# PCLO, Q9Y6V0 = biological target: T2, PCLO, Q9Y6V0
# GRIP2_7, Q9C0E4 = biological target: GRIP2_7, Q9C0E4
# MAST1, Q9Y2H9 = biological target: MAST1, Q9Y2H9
# PDZRN4_1, Q6ZMN7 = biological target: PDZRN4_1, Q6ZMN7
# GRIP1_7, Q9Y3R0 = biological target: T3, GRIP1_7, Q9Y3R0
# NHERF3_3, Q5T2W1 = biological target: T4, NHERF3_3, Q5T2W1
# Inadl_5, Q8NI35 = biological target: Inadl_5, Q8NI35
# MPP7, Q5T2T1 = biological target: T5, MPP7, Q5T2T1
# SNTA1, Q13424 = biological target: T6, SNTA1, Q13424
# MAGI2_3, Q86UL8 = biological target: MAGI2_3, Q86UL8
# MPDZ_5, O75970 = biological target: T7, MPDZ_5, O75970
# LRRC7, Q96NW7 = biological target: T8, LRRC7, Q96NW7
# RHPN1, Q8TCX5 = biological target: T9, RHPN1, Q8TCX5
# LIMK2, P53671 = biological target: LIMK2, P53671
# DLG1_2, Q12959 = biological target: DLG1_2, Q12959
# HTRA1, Q92743 = biological target: HTRA1, Q92743
# GRID2IP_2, A4D2P6 = biological target: GRID2IP_2, A4D2P6
# DLG2_2, Q15700 = biological target: DLG2_2, Q15700
# TX1BP3, O14907 = biological target: T10, TX1BP3, O14907
# SYNJ2BP, P57105 = biological target: T11, SYNJ2BP, P57105
# DLG2_3, Q15700 = biological target: DLG2_3, Q15700
# MAGI2_4, Q86UL8 = biological target: MAGI2_4, Q86UL8
# DLG5_1, Q8TDM6 = biological target: DLG5_1, Q8TDM6
# NHERF3_4, Q5T2W1 = biological target: T12, NHERF3_4, Q5T2W1
# [1] = modified: phospho on T at position -2 from the C-terminal residue
# [2] = plain residues with an end cap or a label only (N-terminal biotin on a linker: ado-ado)
# Chain of MAGI2_3, Q86UL8 (Q86UL8 600-682): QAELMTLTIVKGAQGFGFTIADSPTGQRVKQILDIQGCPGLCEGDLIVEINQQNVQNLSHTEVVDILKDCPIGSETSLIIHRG
# Chain of LIMK2, P53671 (P53671 143-248): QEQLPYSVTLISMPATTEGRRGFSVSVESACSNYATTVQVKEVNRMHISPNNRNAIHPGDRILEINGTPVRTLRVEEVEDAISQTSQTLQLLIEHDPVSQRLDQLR
# Chain of MAST1, Q9Y2H9 (Q9Y2H9 962-1065): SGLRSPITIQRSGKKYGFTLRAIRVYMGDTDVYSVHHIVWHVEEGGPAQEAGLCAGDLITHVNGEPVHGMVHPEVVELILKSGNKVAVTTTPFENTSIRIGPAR
# Chain of MAGI2_4, Q86UL8 (Q86UL8 772-865): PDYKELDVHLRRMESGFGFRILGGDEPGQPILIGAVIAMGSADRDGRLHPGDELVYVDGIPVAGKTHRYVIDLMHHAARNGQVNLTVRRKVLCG
# Chain of GRIP2_7, Q9C0E4 (Q9C0E4 934-1023): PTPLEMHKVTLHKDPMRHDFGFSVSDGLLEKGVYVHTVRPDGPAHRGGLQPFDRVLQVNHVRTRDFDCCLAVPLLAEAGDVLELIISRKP
# Chain of DLG5_1, Q8TDM6 (Q8TDM6 617-713): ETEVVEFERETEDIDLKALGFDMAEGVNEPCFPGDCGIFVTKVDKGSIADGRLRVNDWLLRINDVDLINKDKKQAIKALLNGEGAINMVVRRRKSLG
# Chain of DLG1_2, Q12959 (Q12959 314-412): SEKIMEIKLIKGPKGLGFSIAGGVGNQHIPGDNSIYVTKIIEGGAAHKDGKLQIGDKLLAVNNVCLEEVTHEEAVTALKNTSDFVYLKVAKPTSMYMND
# Chain of PDZRN4_1, Q6ZMN7 (Q6ZMN7 213-318): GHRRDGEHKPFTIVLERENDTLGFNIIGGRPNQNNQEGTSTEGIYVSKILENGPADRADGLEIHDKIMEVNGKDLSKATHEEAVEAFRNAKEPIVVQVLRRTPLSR
# Chain of GRID2IP_2, A4D2P6 (A4D2P6 272-370): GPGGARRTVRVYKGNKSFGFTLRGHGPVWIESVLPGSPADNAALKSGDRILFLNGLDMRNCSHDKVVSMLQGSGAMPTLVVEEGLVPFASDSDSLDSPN
# Chain of Inadl_5, Q8NI35 (Q8NI35 673-780): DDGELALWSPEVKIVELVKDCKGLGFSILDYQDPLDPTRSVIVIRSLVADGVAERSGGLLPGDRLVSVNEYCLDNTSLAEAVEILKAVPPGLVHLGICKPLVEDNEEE
# Chain of HTRA1, Q92743 (Q92743 360-477): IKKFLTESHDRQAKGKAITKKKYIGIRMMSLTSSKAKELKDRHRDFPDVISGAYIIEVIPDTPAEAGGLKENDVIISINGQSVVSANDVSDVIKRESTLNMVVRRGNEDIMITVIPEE
binder,measurement,setting,value
"SKPTRRETEV [HPV35-E6_-2P, P27228]",pKd,"GRIP1_3, Q9Y3R0; [1]",below the threshold
same,pKd,"PCLO, Q9Y6V0; [1]",below the threshold
same,pKd,"GRIP2_7, Q9C0E4; [1]",below the threshold
same,pKd,"MAST1, Q9Y2H9; [1]",below the threshold
same,pKd,"PDZRN4_1, Q6ZMN7; [1]",below the threshold
same,pKd,"GRIP1_7, Q9Y3R0; [1]",below the threshold
same,pKd,"NHERF3_3, Q5T2W1; [1]",below the threshold
same,pKd,"Inadl_5, Q8NI35; [1]",below the threshold
same,pKd,"MPP7, Q5T2T1; [1]",below the threshold
same,pKd,"SNTA1, Q13424; [1]",below the threshold
same,pKd,"MAGI2_3, Q86UL8; [1]",below the threshold
same,pKd,"MPDZ_5, O75970; [1]",below the threshold
same,pKd,"LRRC7, Q96NW7; [1]",below the threshold
same,pKd,"RHPN1, Q8TCX5; [1]",below the threshold
same,pKd,"LIMK2, P53671; [1]",below the threshold
same,pKd,"DLG1_2, Q12959; [1]",below the threshold
same,pKd,"HTRA1, Q92743; [1]",below the threshold
same,pKd,"GRID2IP_2, A4D2P6; [1]",below the threshold
same,pKd,"DLG2_2, Q15700; [1]",3.51
same,pKd,"TX1BP3, O14907; [1]",4.07
same,pKd,"SYNJ2BP, P57105; [1]",below the threshold
same,pKd,"DLG2_3, Q15700; [1]",3.52
same,pKd,"MAGI2_4, Q86UL8; [1]",below the threshold
same,pKd,"DLG5_1, Q8TDM6; [1]",below the threshold
same,pKd,"NHERF3_4, Q5T2W1; [1]",below the threshold
"RRRESYSTTV [EVI5, O60447]",pKd,"GRIP1_3, Q9Y3R0; [2]",below the threshold
same,pKd,"PCLO, Q9Y6V0; [2]",below the threshold
same,pKd,"GRIP2_7, Q9C0E4; [2]",below the threshold
same,pKd,"MAST1, Q9Y2H9; [2]",4.82
same,pKd,"PDZRN4_1, Q6ZMN7; [2]",4.23
same,pKd,"GRIP1_7, Q9Y3R0; [2]",below the threshold
same,pKd,"NHERF3_3, Q5T2W1; [2]",below the threshold
same,pKd,"Inadl_5, Q8NI35; [2]",3.63
same,pKd,"MPP7, Q5T2T1; [2]",below the threshold
same,pKd,"SNTA1, Q13424; [2]",4.41
same,pKd,"MAGI2_3, Q86UL8; [2]",below the threshold
same,pKd,"MPDZ_5, O75970; [2]",below the threshold
same,pKd,"LRRC7, Q96NW7; [2]",below the threshold
same,pKd,"RHPN1, Q8TCX5; [2]",below the threshold
same,pKd,"LIMK2, P53671; [2]",below the threshold
same,pKd,"DLG1_2, Q12959; [2]",5.57
same,pKd,"HTRA1, Q92743; [2]",4.45
same,pKd,"GRID2IP_2, A4D2P6; [2]",4.34
same,pKd,"DLG2_2, Q15700; [2]",5.54
same,pKd,"TX1BP3, O14907; [2]",4.09
same,pKd,"SYNJ2BP, P57105; [2]",4.89
same,pKd,"DLG2_3, Q15700; [2]",4.52
same,pKd,"MAGI2_4, Q86UL8; [2]",4.63
same,pKd,"DLG5_1, Q8TDM6; [2]",below the threshold
same,pKd,"NHERF3_4, Q5T2W1; [2]",below the threshold
"LRSPRTPSEV [OR10G3, Q8NGC4]",pKd,"GRIP1_3, Q9Y3R0; [2]",below the threshold
same,pKd,"PCLO, Q9Y6V0; [2]",below the threshold
same,pKd,"GRIP2_7, Q9C0E4; [2]",below the threshold
same,pKd,"MAST1, Q9Y2H9; [2]",below the threshold
same,pKd,"PDZRN4_1, Q6ZMN7; [2]",below the threshold
same,pKd,"GRIP1_7, Q9Y3R0; [2]",below the threshold
same,pKd,"NHERF3_3, Q5T2W1; [2]",3.54
same,pKd,"Inadl_5, Q8NI35; [2]",4.73
same,pKd,"MPP7, Q5T2T1; [2]",below the threshold
same,pKd,"SNTA1, Q13424; [2]",3.52
same,pKd,"MAGI2_3, Q86UL8; [2]",3.55
same,pKd,"MPDZ_5, O75970; [2]",3.82
same,pKd,"LRRC7, Q96NW7; [2]",3.48
same,pKd,"RHPN1, Q8TCX5; [2]",below the threshold
same,pKd,"LIMK2, P53671; [2]",below the threshold
same,pKd,"DLG1_2, Q12959; [2]",4.1
same,pKd,"HTRA1, Q92743; [2]",3.58
same,pKd,"GRID2IP_2, A4D2P6; [2]",below the threshold
same,pKd,"DLG2_2, Q15700; [2]",3.55
same,pKd,"TX1BP3, O14907; [2]",3.51
same,pKd,"SYNJ2BP, P57105; [2]",4.61
same,pKd,"DLG2_3, Q15700; [2]",below the threshold
same,pKd,"MAGI2_4, Q86UL8; [2]",below the threshold
same,pKd,"DLG5_1, Q8TDM6; [2]",below the threshold
same,pKd,"NHERF3_4, Q5T2W1; [2]",below the threshold

# Source: PMC9482650, “Quantitative fragmentomics allow affinity mapping of interactomes” (Nature Communications, 2022)
